Laboratory results published in the nanobody polyreactivity screen of Harvey et al. (2022).

Experiment: yeast display, Sf9 membrane polyspecificity reagent, FACS + sequencing; frameworks hold sequencing errors
Summary of the method: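 Synthetic nanobody libraries on Saccharomyces cerevisiae BJ5465 were galactose-induced for 36–48 hours, stained 1 hour at 4 °C with 10% biotinylated, detergent-solubilized Sf9 membrane reagent and enriched on streptavidin microbeads. FACS then separated cells into low and high (top ~1%) gates by anti-HA (expression) and streptavidin (reagent binding) fluorescence. Genes were colony-PCR amplified, MiSeq 2 × 250 sequenced and CDR-length filtered. A clone's polyreactivity label is that of its gate of origin.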

Row | Sequence | polyreactivity (PSR sort gate)
1 | QVQLVESGGGLVQAGGSLRLSCAASGRIFGLNAMGWYRQAPGKERELVAAISERDGSTYYADSVKGRFTISRDNAKNTVYLQMNSLKPEDTAVYYCAAEKPVHYVRGVHYDYWGQGTQVTVSS | low polyreactivity
2 | QVQLVESGGGLVQAGGSLRLSCAASGRIFGLNAMGWYRQAPGKERELVAAISERDGSTYYADSVKGRFTISRDNAKNTVYLQMNSLKPEDTAVYYCAAVTPVHYVRGVHYDYWGQGTQVTVSS | low polyreactivity
3 | QVQLVESGGGLVQAGGSLRLSCAASGRIFGLNSLGWYRQAPGNEMELVAAIDIIGGSTYYADSVKGRFTISRDNAKNTVYLQMNSLKPEDTAVYYCAAEADFWRYVEYDYWGQGTQVTVSS | low polyreactivity
4 | QVQLVESGGGLVQAGGSLRLSCAASGRIFGLYAMGWYRQAPGKERELVAAIRSSGGSTYYADSVKGRFTISRDNAQNTVYLQMISQKPDDTAVYYCAADGDEDGEYWGQGTQVTVSS | low polyreactivity
5 | QVQLVESGGGLVQAGGSLRLSCAASGRIFGLYAMGWYRQAPGKERELVAAITLSGDGTDYADSVKGRFTISRDNAKNTVYLQMNSLKPEDTPVYYCAKVGQYWWNMDYWGQGTQVTVSS | low polyreactivity
6 | QVQLVESGGGLVQAGGSLRLSCAASGRIFGNNAMGWYRQAPGKERELVAAISWSARSTYADSVKGRFTISRDNAKNTVYLQMNSLKPEVTAVYYCNADSAARKGWPIYGYWGQGTKVTVSS | high polyreactivity
7 | QVQLVESGGGLVQAGGSLRLSCAASGRIFGNYAMGWSRQAPGKERELVSAITYSTGGTSTYADSVKGLFTISRDNAKNSVYLQMNSLKPEDTAVYYCAVRRQYRRAYSFSQSRYDYWGQGTQVTVSS | high polyreactivity
8 | QVQLVESGGGLVQAGGSLRLSCAASGRIFGNYAMGWYRQAPGKERELVAAIRWSGGRTYYADSVKGRFTISRDTAKNTVYLQMNSLKPEDTAVYYCNAYGRYSYPTFDYWGQGTQVTVSS | high polyreactivity
9 | QVQLVESGGGLVQAGGSLRLSCAASGRIFGNYAMGWYRQAPGKESELVAAISGGGSTYYADSVKGRFTISRDNAKNTVYLQMNSLKPEDTAVYYCAARFLWSVFGRKGGYWGQGTQVTVSS | low polyreactivity
10 | QVQLVESGGGLVQAGGSLRLSCAASGRIFGPNAMGWYRPAPGKERELVAAISTRDGSTSYADSVKGRFTISRDNAKNTVYLQMNSLKPEDTAVYYCAKRWPYWYRVTQYDNVDYWGQGTQVTVSS | low polyreactivity
11 | QVQLVESGGGLVQAGGSLRLSCAASGRIFGPYAMGWYRQAPGKERELVATITWSGVSTYYADSVKGRFTISRDNAKNTVYLQMNSLKPEDTAVYYCNAKRTGQWFLHVPVYYWGQGTQVTVSS | low polyreactivity
12 | QVQLVESGGGLVQAGGSLRLSCAASGRIFGPYAMGWYRQAPGTERELVAAIRASSSSTYYADSVKGRFTISRDNAKNTVYLQMNSLKPEDTAVYYCAADWYYGYAWKYGYWGQGTQVTVSS | low polyreactivity
13 | QVQLVESGGGLVQAGGSLRLSCAASGRIFGPYTKGWYRQAPGKERELVATISYSGSTTYYADSVKGRFTISRDNAKNTVYLQMNSLKPEDTAVYYCAAYYWARRDWGQGTQVTVSS | high polyreactivity
14 | QVQLVESGGGLVQAGGSLRLSCAASGRIFGPYTMGWYRPAPGKEREFVAAISRSGDSTYYADSVKGRFTISRDNAKNTVYLHMNSLKPADTAVYYCAAKYGTRLTAYYYWGQGTQVTVSS | high polyreactivity
15 | QVQLVESGGGLVQAGGSLRLSCAASGRIFGQNAMGWYRQAPGKERELVAVITSRGTRTYYADSVKGRFTISRDNAKNTVYLQMNSLKPEDTAVYYCAADVYSDNYKTWPYDYWGQGTQVTVSS | low polyreactivity
16 | QVQLVESGGGLVQAGGSLRLSCAASGRIFGQNTMGWYRQAPGKERELVAAITWNGGRTYYADSVKGRFTISRDNAKNTVYLQMNSLKPEDTAVYYCAARYSTYPWYNYWGQGTQVTVSS | high polyreactivity
17 | QVQLVESGGGLVQAGGSLRLSCAASGRIFGQNVMGWYIQAPGKERELVAAITSAGRTYYADSVKGRFTISRDIAKNTVYLQMKSLKPEDTAVYYCAAYVRRGFDWGQGTQVTVSS | high polyreactivity
18 | QVQLVESGGGLVQAGGSLRLSCAASGRIFGRNAMGWYRQAPGKERELVAAISKSGTSTYYADSVKGRFTISRDNAKNTVYLQMNSLKPEDTAVYYCAAALPGYGDYYYWGQGTQVTVSS | high polyreactivity
19 | QVQLVESGGGLVQAGGSLRLSCAASGRIFGRNAMGWYRQAPGKERELVAAISRSGGSTYYADSVKGRFTISRDNAKNTVYLQMNSLKPEFTAVYYCAADVYRTWYWWFDYWGHGTQVTVSS | high polyreactivity
20 | QVQLVESGGGLVQAGGSLRLSCAASGRIFGRNAMGWYRQAPGKERELVAAISWRGGNTYYADSVKGRFTISRDNAKNTVYLQMNSLKPEDTAVYYCNTVQYRNEMGYWGQGTQVTVSS | high polyreactivity
21 | QVQLVESGGGLVQAGGSLRLSCAASGRIFGRNAMGWYRQAPGKERELVASITWTGGSTYYADSVKGRFTISRDNAKNTVYLQMNSLKPEDTAVYYCAAETWYGSSWWDAGEYYYWGQGTQVTVSS | high polyreactivity
22 | QVQLVESGGGLVQAGGSLRLSCAASGRIFGRYAKGWYRQAPGKEMELVAAISRSGGSTYYADSVKGRFTISRDNAKNTVYLQMNSLKPEDTAVYDCAAVPGISVGRQPGYDSDYWGQGTQVTVSS | low polyreactivity

Row | Sequence | polyreactivity (PSR sort gate)
23 | QVQLVESGGGLVQAGGSLRLSCAASGRIFGRYAMGWYRQAPGKDRELVAAITYSGGSTYYADSVKGRFTISRDNAKNTVYFQMNSLKPEDTALYYCNAVAYRSRGPHFNYWGQGTQVTVST | high polyreactivity
24 | QVQLVESGGGLVQAGGSLRLSCAASGRIFGRYAMGWYRQAPGKERELVAAISRRGGTTYYADSVKGRFTISRDNAKNTVYLQMNSLKPEDTAVYYCNADTYGYGFDYWGQGTQVTVSS | high polyreactivity
25 | QVQLVESGGGLVQAGGSLRLSCAASGRIFGRYAMGWYRQAPGKERELVAAITSGGSTKYADSVKGRFTISRDNAKNNVDLQMNSLKPEDTAVYYCAVVPYGPVYRSYYYWGQGTQVTVSS | high polyreactivity
26 | QVQLVESGGGLVQAGGSLRLSCAASGRIFGRYAMGWYRQAPGKERELVAGISARGGSTYYADSVKGRFTISRDNAKNTVYLQMNSLKPADTAVYYCAAAGYRGGGYWGQRTQVTVSS | high polyreactivity
27 | QVQLVESGGGLVQAGGSLRLSCAASGRIFGRYAMGWYRQAPGKERELVARITFRGGNTYYADSVKGRFTISRDNAKNTVYLQMNSLKPEDTAVYYCNASKHNPYGGDYWGQGTQVTVSS | high polyreactivity
28 | QVQLVESGGGLVQAGGSLRLSCAASGRIFGRYAMGWYRQAPGKERELVASIRSRGGSTYYADSVKGRFTISRDNAKNTVYLQMNSLKPEDTAVYYCAADGTRSYKGYYWGQGTQVTVSS | high polyreactivity
29 | QVQLVESGGGLVQAGGSLRLSCAASGRIFGRYAMGWYRQAPGKERGLVAAITRRGGNTYYADSVKGRFTISRDNAKNTVYLQMNSLKPEDTAVYYCNDDTSTYAIRGQWSWYDYWGQGTQVTVSS | high polyreactivity
30 | QVQLVESGGGLVQAGGSLRLSCAASGRIFGRYAMGWYRQATGKERELVAAITSGGRTSYADSVKGRFTISRDNAKNTVYLQMNSLKPEDTAVYYCNVVSRNSIRFDYWGQGTQVTVSS | high polyreactivity
31 | QVQLVESGGGLVQAGGSLRLSCAASGRIFGSNAMGWYRQAPAKERELVAAITFRTASTYYADSVKGRFTISRDNAKNTVYLQMNSLKPEDTSVYSCNADKFSAPPLYEYEYWGQGTQVTVSS | low polyreactivity
32 | QVQLVESGGGLVQAGGSLRLSCAASGRIFGSYAMGWYRQAPGKERELVATISRRGGSTYYADSVKGRFTISRDNAKNTVYLQMNRLKPEDTAVYYCNADYKITKTWSGTIRYYYWGQGTQVTVSS | high polyreactivity
33 | QVQLVESGGGLVQAGGSLRLSCAASGRIFGSYGMGWYRQAPGKEWELVAAITPSGTSTYYADSVKGRFTISRDNAKNTVYLEMNSLKPEDTAVYNCNALFYRRYAFAFGYWRQGTQVTVSS | high polyreactivity
34 | QVQLVESGGGLVQAGGSLRLSCAASGRIFGTNAMGWYRQAPGKERELVAAITWNADDTYYADSVKGRFTISRDNAKNTVYLQMNSLKPEDTAVYYCAADSYEGYYYWGQGTQVTVSS | low polyreactivity
35 | QVQLVESGGGLVQAGGSLRLSCAASGRIFGTNAMGWYRQAPGKERELVADITSGGSTNYADSVKGRFTISRDNAKNTVYLQMNSLKPEDTAVYYCAADVIADLRWYRDEYWGQGTQLTVSS | low polyreactivity
36 | QVQLVESGGGLVQAGGSLRLSCAASGRIFGTYAMGWYRQAPGKERELVAAITSGGRTYYADSVKGRFTISRDNAKNTVYLQMNSLKPEDTAVYYCNAVRYYVYDRRFNYWGQGTQVTVSS | high polyreactivity
37 | QVQLVESGGGLVQAGGSLRLSCAASGRIFGTYAMGWYRQAPRKERELVAAITQSARSTYYADSVKGRFTISRDNAKNTVYLQMNSLKPEDTAVYYCAAVGYYTKRRFGYWGQGTQVTVSS | high polyreactivity
38 | QVQLVESGGGLVQAGGSLRLSCAASGRIFGTYTKGWYRQAPGKERELVAAITTGGITNYADSVKGRFTISRDNAKNTVYLQMKSLKPEDTAVYYCNARWDYGAYEYWGQGTQVTVSS | low polyreactivity
39 | QVQLVESGGGLVQAGGSLRLSCAASGRIFGVNAMGRYRQAPGKERELVADISSGGSTYYADSVKGRFTISRDNAKNTVYLQMNSLNPEDTAVYSCAVDKYVFVSYSFYFEYDYWGQGTQVTVSS | low polyreactivity
40 | QVQLVESGGGLVQAGGSLRLSCAASGRIFGVNAMGWYRQAPGKERELVAAIDWSDGSTYYADSVKGRFTISRDNAKNTVYLQMNSLKPEDTAVYYCATDYSYGDYYDDEFPSDDFDYWGQGTQVTVSS | low polyreactivity
41 | QVQLVESGGGLVQAGGSLRLSCAASGRIFGVNAMGWYRQAPGKERELVAAINYSGGRTSYADSVKGRFTISRDNEKNTVYLQMKSLKPEDTAVYYCAKYGLRGGYLYYYWGQGTQVTVSS | high polyreactivity
42 | QVQLVESGGGLVQAGGSLRLSCAASGRIFGVNAMGWYRQAPGKERELVAAITSGGSTNYADSVKGRFTISRDNAKNTVYLQMNSLKPEDTAVYYCAAVNYYWGQGTQVTVSS | low polyreactivity
43 | QVQLVESGGGLVQAGGSLRLSCAASGRIFGVNAMGWYRQAPGKERELVADITGSGGSTYYADSVKGRFTISRDNAKNTVYLQMNCLKAEDTAVYYCATRWIGYTSQWDHFEYDYWGQGTQVTVSS | low polyreactivity
